# B1: Arabidopsis thaliana ThiC, ΔN71-AtThiC (residues 1-71 removed) (enzyme)
# chain: not shown
# notes: ThiC (thiamin pyrimidine synthase, HMP-P synthase), Arabidopsis thaliana; full-length protein has 644 residues; Holds a [4Fe-4S] cluster and an additional metal (Fe or Zn); The final 55 residues are not visible in the electron density.}; also called thiamin pyrimidine synthase; not shown: His6, N-terminal, cleaved
# B2: Caulobacter crescentus ThiC, full length (enzyme)
# chain: not shown
# notes: ThiC (thiamin pyrimidine synthase), Caulobacter crescentus; Holds a [4Fe-4S] cluster; also called CcThiC; holo CcThiC; not shown: His6, N-terminal, cleaved
# What was measured:
# [1] = biological target: the molecule itself; assay: crystal structure; AtThiC with [4Fe-4S] cluster co-crystallised anaerobically with combinations of IRN, AIR, SAH, 5'-dAdo, L-Met, Zn or Fe; hanging drop, room temperature; space groups P3(2)21 and C2; 1.25-1.84 Å
# [2] = biological target: the molecule itself; assay: crystal structure; holo CcThiC with [4Fe-4S] cluster, no substrates; anaerobic, 140 mM HEPES pH 9.2, 7.5% PEG8000; space group C2; 2.93 Å
Protein,binding result [1],binding result [2]
B1,binds,
B2,,binds

# — paper PMC4389238, “Non-canonical active site architecture of the radical SAM thiamin pyrimidine synthase” (Nature Communications, 2015)
